Laboratory results published in publication PMC3899335, “ParABS System in Chromosome Partitioning in the Bacterium Myxococcus xanthus”.

Target: T1, ParB (Myxococcus xanthus DK1050, UniProt Q1CVJ4 1-296)
T1 sequence: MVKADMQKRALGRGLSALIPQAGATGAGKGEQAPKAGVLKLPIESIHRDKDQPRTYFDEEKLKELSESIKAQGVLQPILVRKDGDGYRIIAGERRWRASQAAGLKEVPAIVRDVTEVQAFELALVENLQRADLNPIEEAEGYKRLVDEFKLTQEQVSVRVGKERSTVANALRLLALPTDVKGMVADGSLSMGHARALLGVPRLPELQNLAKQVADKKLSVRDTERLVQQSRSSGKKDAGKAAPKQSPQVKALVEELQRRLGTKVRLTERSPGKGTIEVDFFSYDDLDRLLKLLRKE
Test: EMSA (polyacrylamide); single retarded band up to highest ParB; 40 mM Na-phosphate pH 8, 20 mM NaCl, 7% glycerol, 20 ug/ml BSA, 100 ug/ml sheared salmon sperm DNA, 30 C (30 min agarose, 1 h polyacrylamide); gels run at 4 C
Conditions: protein: recombinant; tags: intein-chitin tag (pTYB12) removed by on-column DTT cleavage; chain copies: 2; label: 32P 5' end; blunt

B1: parS 50 bp consensus (dsDNA)
DNA 1: ACTCACTCATGGCCTCCGTGTTCCACGTGGAACGAAGGATGACTCGAGCA
DNA 2: TGCTCGAGTCATCCTTCGTTCCACGTGGAACACGGAGGCCATGAGTGAGT
**Q.** Does B1 bind?
**A.** binds
